Source: the supplement of paper PMC6755084

Tested on: F1*sub RNA substrate (template-directed ligation)
Assay: fraction ligated after 30 min (ligated reads / total reads); higher = more ligase activity; sequences stand for … in GAGACCGCAACTGAAAAGTTGT…AGTTCTGCACGTAGAAGCAAAAGGC
Settings: 42 °C
Summary of the method: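 Ribozyme variants were transcribed with T7 from PCR-amplified oligo-pool templates and gel-purified. Ligated and unligated bands, separated on gel, were reverse transcribed with barcoded primers and sequenced on a MiSeq, with core bases filtered at quality ≥20. Fraction ligated per variant was computed as ligated reads divided by total reads.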

Sequence	fraction ligated
TATCATTGTCGTAGACACTTGGATGGGTTGA [3d1220]	0.752
TATCATTGTCGTAGACACTTTGATGGGTTGA [3d1221]	0.774
TATCATTGTCGTAGACACTTTGGAGGGTTGA [3d1223]	0.0919
TATCATTGTCGTAGACACTTTGGATGGGTTA [3d1225]	0.595
TATCATTGTCGTAGACACTTTGGATGGGTTG [3d1226]	0.799
TATCATTGTCGTAGACACTTTGGATGGGTTGA [2d115]	0.798
TATCATTGTCGTAGACACTTTGGATGGTTGA [3d1224]	0.305
TATCATTGTCGTAGACACTTTGGTGGGTTGA [3d1222]	0.356
TATCATTGTCGTAGACATTTGGATGGGTTGA [3d1219]	0.809
TATCATTGTCGTAGACCTTTGGATGGGTTGA [3d1218]	0.788
TATCATTGTCGTAGCACTTTGGATGGGTTGA [3d1216]	0.814
TATCATTGTCGTGACACTTTGGATGGGTTGA [3d1214]	0.792
TATCATTGTCTAAACACTTTGGATGGGTTGA [3d1189]	0.785
TATCATTGTCTAAGAACTTTGGATGGGTTGA [3d1191]	0.803
TATCATTGTCTAAGACACTTGGATGGGTTGA [3d1194]	0.78
TATCATTGTCTAAGACACTTTGATGGGTTGA [3d1195]	0.751
TATCATTGTCTAAGACACTTTGGAGGGTTGA [3d1197]	0.0716
TATCATTGTCTAAGACACTTTGGATGGGTTA [3d1199]	0.477
TATCATTGTCTAAGACACTTTGGATGGGTTG [3d1200]	0.769
TATCATTGTCTAAGACACTTTGGATGGGTTGA [2d113]	0.785
TATCATTGTCTAAGACACTTTGGATGGTTGA [3d1198]	0.169
TATCATTGTCTAAGACACTTTGGTGGGTTGA [3d1196]	0.222
TATCATTGTCTAAGACATTTGGATGGGTTGA [3d1193]	0.778

Sequence	fraction ligated
TATCATTGTCTAAGACCTTTGGATGGGTTGA [3d1192]	0.758
TATCATTGTCTAAGCACTTTGGATGGGTTGA [3d1190]	0.765
TATCATTGTCTAGACACTTTGGATGGGTTGA [3d1188]	0.765
TATCATTGTGAAGACACTTTGGATGGGTTGA [3d1173]	0.824
TATCATTGTGTAAACACTTTGGATGGGTTGA [3d1175]	0.82
TATCATTGTGTAAGAACTTTGGATGGGTTGA [3d1177]	0.856
TATCATTGTGTAAGACACTTGGATGGGTTGA [3d1180]	0.799
TATCATTGTGTAAGACACTTTGATGGGTTGA [3d1181]	0.308
TATCATTGTGTAAGACACTTTGGAGGGTTGA [3d1183]	0.0175
TATCATTGTGTAAGACACTTTGGATGGGTTA [3d1185]	0.677
TATCATTGTGTAAGACACTTTGGATGGGTTG [3d1186]	0.786
TATCATTGTGTAAGACACTTTGGATGGGTTGA [2d112]	0.824
TATCATTGTGTAAGACACTTTGGATGGTTGA [3d1184]	0.0387
TATCATTGTGTAAGACACTTTGGTGGGTTGA [3d1182]	0.0386
TATCATTGTGTAAGACATTTGGATGGGTTGA [3d1179]	0.839
TATCATTGTGTAAGACCTTTGGATGGGTTGA [3d1178]	0.875
TATCATTGTGTAAGCACTTTGGATGGGTTGA [3d1176]	0.86
TATCATTGTGTAGACACTTTGGATGGGTTGA [3d1174]	0.856
TATCATTGTTAAGACACTTTGGATGGGTTGA [3d1172]	0.798
TATCATTTCGAAGACACTTTGGATGGGTTGA [3d1142]	0.812
TATCATTTCGTAAACACTTTGGATGGGTTGA [3d1144]	0.806
TATCATTTCGTAAGAACTTTGGATGGGTTGA [3d1146]	0.857
TATCATTTCGTAAGACACTTGGATGGGTTGA [3d1149]	0.763

Sequence	fraction ligated
TATCATTTCGTAAGACACTTTGATGGGTTGA [3d1150]	0.799
TATCATTTCGTAAGACACTTTGGAGGGTTGA [3d1152]	0.042
TATCATTTCGTAAGACACTTTGGATGGGTTA [3d1154]	0.313
TATCATTTCGTAAGACACTTTGGATGGGTTG [3d1155]	0.769
TATCATTTCGTAAGACACTTTGGATGGGTTGA [2d110]	0.807
TATCATTTCGTAAGACACTTTGGATGGTTGA [3d1153]	0.101
TATCATTTCGTAAGACACTTTGGTGGGTTGA [3d1151]	0.1
TATCATTTCGTAAGACATTTGGATGGGTTGA [3d1148]	0.801
TATCATTTCGTAAGACCTTTGGATGGGTTGA [3d1147]	0.775
TATCATTTCGTAAGCACTTTGGATGGGTTGA [3d1145]	0.786
TATCATTTCGTAGACACTTTGGATGGGTTGA [3d1143]	0.802
TATCATTTCTAAGACACTTTGGATGGGTTGA [3d1141]	0.786
TATCATTTGTAAGACACTTTGGATGGGTTGA [3d1140]	0.803
TATCCGTCGTAAGACACTTTGGATGGGTTGA [3d949]	0.798
TATCCTGCGTAAGACACTTTGGATGGGTTGA [3d951]	0.786
TATCCTGTCGAAGACACTTTGGATGGGTTGA [3d954]	0.786
TATCCTGTCGTAAACACTTTGGATGGGTTGA [3d956]	0.796
TATCCTGTCGTAAGAACTTTGGATGGGTTGA [3d958]	0.803
TATCCTGTCGTAAGACACTTGGATGGGTTGA [3d961]	0.794
TATCCTGTCGTAAGACACTTTGATGGGTTGA [3d962]	0.754
TATCCTGTCGTAAGACACTTTGGAGGGTTGA [3d964]	0.0143
TATCCTGTCGTAAGACACTTTGGATGGGTTA [3d966]	0.436
TATCCTGTCGTAAGACACTTTGGATGGGTTG [3d967]	0.76

Sequence	fraction ligated
TATCCTGTCGTAAGACACTTTGGATGGGTTGA [2d90]	0.788
TATCCTGTCGTAAGACACTTTGGATGGTTGA [3d965]	0.038
TATCCTGTCGTAAGACACTTTGGTGGGTTGA [3d963]	0.274
TATCCTGTCGTAAGACATTTGGATGGGTTGA [3d960]	0.766
TATCCTGTCGTAAGACCTTTGGATGGGTTGA [3d959]	0.772
TATCCTGTCGTAAGCACTTTGGATGGGTTGA [3d957]	0.783
TATCCTGTCGTAGACACTTTGGATGGGTTGA [3d955]	0.779
TATCCTGTCTAAGACACTTTGGATGGGTTGA [3d953]	0.785
TATCCTGTGTAAGACACTTTGGATGGGTTGA [3d952]	0.791
TATCCTTCGTAAGACACTTTGGATGGGTTGA [3d950]	0.798
TATCCTTGCGAAGACACTTTGGATGGGTTGA [3d986]	0.806
TATCCTTGCGTAAACACTTTGGATGGGTTGA [3d988]	0.807
TATCCTTGCGTAAGAACTTTGGATGGGTTGA [3d990]	0.832
TATCCTTGCGTAAGACACTTGGATGGGTTGA [3d993]	0.75
TATCCTTGCGTAAGACACTTTGATGGGTTGA [3d994]	0.815
TATCCTTGCGTAAGACACTTTGGAGGGTTGA [3d996]	0.0215
TATCCTTGCGTAAGACACTTTGGATGGGTTA [3d998]	0.403
TATCCTTGCGTAAGACACTTTGGATGGGTTG [3d999]	0.791
TATCCTTGCGTAAGACACTTTGGATGGGTTGA [2d92]	0.803
TATCCTTGCGTAAGACACTTTGGATGGTTGA [3d997]	0.0475
TATCCTTGCGTAAGACACTTTGGTGGGTTGA [3d995]	0.131
TATCCTTGCGTAAGACATTTGGATGGGTTGA [3d992]	0.792
TATCCTTGCGTAAGACCTTTGGATGGGTTGA [3d991]	0.792

Sequence	fraction ligated
TATCCTTGCGTAAGCACTTTGGATGGGTTGA [3d989]	0.775
TATCCTTGCGTAGACACTTTGGATGGGTTGA [3d987]	0.799
TATCCTTGCTAAGACACTTTGGATGGGTTGA [3d985]	0.764
TATCCTTGGTAAGACACTTTGGATGGGTTGA [3d984]	0.796
TATCCTTGTCAAGACACTTTGGATGGGTTGA [3d1015]	0.791
TATCCTTGTCGAAACACTTTGGATGGGTTGA [3d1030]	0.81
TATCCTTGTCGAAGAACTTTGGATGGGTTGA [3d1032]	0.772
TATCCTTGTCGAAGACACTTGGATGGGTTGA [3d1035]	0.775
TATCCTTGTCGAAGACACTTTGATGGGTTGA [3d1036]	0.781
TATCCTTGTCGAAGACACTTTGGAGGGTTGA [3d1038]	0.016
TATCCTTGTCGAAGACACTTTGGATGGGTTA [3d1040]	0.404
TATCCTTGTCGAAGACACTTTGGATGGGTTG [3d1041]	0.783
TATCCTTGTCGAAGACACTTTGGATGGGTTGA [2d95]	0.806
TATCCTTGTCGAAGACACTTTGGATGGTTGA [3d1039]	0.0395
TATCCTTGTCGAAGACACTTTGGTGGGTTGA [3d1037]	0.181
TATCCTTGTCGAAGACATTTGGATGGGTTGA [3d1034]	0.79
TATCCTTGTCGAAGACCTTTGGATGGGTTGA [3d1033]	0.747
TATCCTTGTCGAAGCACTTTGGATGGGTTGA [3d1031]	0.775
TATCCTTGTCGAGACACTTTGGATGGGTTGA [3d1029]	0.793
TATCCTTGTCGTAAAACTTTGGATGGGTTGA [3d1055]	0.792
